From patent US20210179726A1 (DINGFU BIOTARGET, published 2021)

T1: hCD27-muFc (human; mouse, UniProt P26842 20-192)
T1 construct: range 1-192; Secreted from HEK293, Protein A purified; not shown: mouse IgG1-Fc (muFc), residues 98 to 324 of UniProt P01868
T1 sequence (looked up): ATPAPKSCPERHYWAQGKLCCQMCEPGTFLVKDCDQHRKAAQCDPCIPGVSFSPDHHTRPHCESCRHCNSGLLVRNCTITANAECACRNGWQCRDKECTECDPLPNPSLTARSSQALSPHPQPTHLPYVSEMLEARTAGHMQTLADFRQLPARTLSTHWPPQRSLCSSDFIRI

T2: hCD27-EGFP on HEK293 cells (human, UniProt P26842 20-260)
T2 construct: EGFP fusion expressed on transfected HEK293 cells; also called CD27-EGFP cells; cell surface CD27
T2 sequence (looked up): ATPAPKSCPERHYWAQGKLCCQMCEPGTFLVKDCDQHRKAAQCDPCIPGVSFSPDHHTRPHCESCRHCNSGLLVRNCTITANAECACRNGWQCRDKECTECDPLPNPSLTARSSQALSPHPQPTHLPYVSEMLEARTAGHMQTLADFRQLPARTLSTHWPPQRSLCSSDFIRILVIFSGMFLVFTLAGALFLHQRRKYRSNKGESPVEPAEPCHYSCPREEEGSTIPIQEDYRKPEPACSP


How the values were obtained:
[1] = molecular target: T1, hCD27-muFc; experiment: BLI (Octet K2), antibody on Protein A biosensor, hCD27-muFc in solution
Protocol: Using the BLI method, each humanized antibody was immobilized on a Protein A biosensor at a concentration of 10 μg/ml, while hCD27-muFc was subjected to 2-fold serial dilution, starting from 100 nM, to obtain 5 gradient dilutions for each antibody. The reaction plate was placed on the Octet K2 instrument. The parameters were set to Baseline 70 s, Association 80 s, Dissociation 300 s, Baseline 260 s, Loading 40 s, and Custom 5 s.

[2] = molecular target: T1, hCD27-muFc; experiment: ELISA, plate coated with hCD27-muFc, Test 1
Protocol: (§1) The ELISA plate was coated with 2 μg/ml hCD27-muFc, 100 μl/well and incubated at 4° C. overnight. Then it was washed once with 10 mM, pH 7.4 PBS/Tween (0.05%), blocked with PBST containing 5% skimmed milk powder and incubated at 37° C. for 2 h. After washing the plate for 4 times, the humanized antibodies were added and incubated at 37° C. for 40 min, then it was washed for 4 times. Anti-human IgG-HRP-conjugated secondary antibody (Sigma, Cat #A0170-1M) was added and incubated at 37° C. for 40 min. After washing, the plate was developed with TMB substrate and spectrophotometric analysis was performed at OD₄₅₀. In FIGS. 5A-5B, each curve represents the binding result obtained for one of the humanized antibodies. From the results, it can be seen that all these humanized antibodies could bind to human CD27.

[3] = molecular target: T1, hCD27-muFc; experiment: ELISA, plate coated with hCD27-muFc, Test 2
Protocol: as §1

[4] = molecular target: T2, hCD27-EGFP on HEK293 cells; experiment: FACS titration on CD27-EGFP HEK293 cells, 8 three-fold dilutions from 20 µg/ml, anti-human Ig-APC secondary, MFI; table drawn under the plot, unit from the x axis; no upper plateau reached
Protocol: Based on the above results of ELISA, 7 humanized antibodies were selected to examine their affinities to cell surface CD27. Briefly, 5×10⁵ CD27-EGFP cells prepared in Example 1 were washed twice in PBS, each of the humanized antibodies (d16647, d12996, d9419, 14822, 9424, d14822, d12674) was added. The antibodies were subjected to 3-fold serial dilution, starting from 20 μg/ml, to obtain 8 gradient dilutions for each antibody. The antibodies and the cells were incubated at 4° C. for 30 min. Then, it was washed twice with PBS, anti-human Ig-APC (Jackson ImmunoResearch Laboratories, Cat #109-135-098) was added, and incubated at 4° C. for 30 min, washed twice with PBS and resuspended in 300 μl PBS. Flow cytometry was then performed, and the results are shown in FIG. 6. m2F11 was used as a control.

Binder | Kd [1] [nM] | koff [1] [s⁻¹] | kon [1] [M⁻¹ s⁻¹] | EC50 [2] [µg/mL] | EC50 [3] [µg/mL] | LogEC50 [4]
12996 (antibody, human IgG1, V domains shown, not shown: a dimerising Fc or GST, Humanized m2F11, human IgG1 / kappa) VH: EVHLQESGGGLVKPGGSLRLSCAASGFTFSSYAMSWVRQAPEKGLEWVAIIGDGDTYTYYPDSVKGRFTISRDNSKNRLYLQMNSLKSEDTAMYYCVRTRGGPFDYWGQGTTLTVSS VL: EILLTQSPAFMSATPGEKVTITCSASSSVGSMHWYQQKSGQSPRRLIYDTSKLASGVPDRFSGSGSGTDYTLTISSLEAEDAATYYCQQWSSIPPTFGAGTTLELK | 4.98 | 0.000368 | 73900 | 0.0506 |  | 
d14822 (antibody, human IgG1, V domains shown, not shown: a dimerising Fc or GST, Humanized m2F11, human IgG1 / kappa) VH: EVHLQESGGGLVKPGGSLRLSCAASGFTFSSYAMSWVRQTPDKGLEWVAIIGDGDTYTYYPDSVKGRFTISRDNSKNTLYLQMNDLKSEDTAMYYCVRTRGGPFDYWGQGTTLTVSS VL: EILLTQSPAFMSATPGEKVTITCSASSSVGSMHWYQQKSGQSPRRLIYDTSKLASGVPDRFSGSGSGTDYTLTISSLEAEDAATYYCQQWSSIPPTFGAGTTLELK | 4.27 | 0.000334 | 78200 |  | 0.0339 | 0.373 Log10(ug/ml)
d16647 (antibody, human IgG1, V domains shown, not shown: a dimerising Fc or GST, Humanized m2F11, human IgG1 / kappa) VH: QVELRESGGGLVKPGGSLRLSCAASGFTFSSYAMSWVRQTPDKGLEWVAIIGDGDTYTYYPDSVKGRFTISRDNSKNRLYLQMNDLKSEDTAMYYCVRTRGGPFDYWGQGTTLTVSS VL: EILLTQSPAFMSATPGEKVTITCSASSSVGSMHWYQQKSGQSPRRLIYDTSKLASGVPDRFSGSGSGTDYTLTISSLEAEDAATYYCQQWSSIPPTFGAGTTLELK | 3.05 | 0.000281 | 92100 | 0.0376 |  | 0.601 Log10(ug/ml)
12674 (antibody, human IgG1, V domains shown, not shown: a dimerising Fc or GST, Humanized m2F11, human IgG1 / kappa) VH: EVHLQESGGGLVKPGGSLRLSCAASGFTFSSYAMSWVRQAPGKGLEWVAIIGDGDTYTYYPDSVKGRFTISRDNSKNRLYLQMNSLKSEDTAMYYCVRTRGGPFDYWGQGTTLTVSS VL: EILLTQSPAFMSATPGEKVTITCSASSSVGSMHWYQQKSGQSPRRLIYDTSKLASGVPDRFSGSGSGTDYTLTISSLEAEDAATYYCQQWSSIPPTFGAGTTLELK | 3.66 | 0.000291 | 79500 | 0.0585 |  | 
d12674 (antibody, human IgG1, V domains shown, not shown: a dimerising Fc or GST, Humanized m2F11, human IgG1 / kappa) VH: EVHLQESGGGLVKPGGSLRLSCAASGFTFSSYAMSWVRQAPGKGLEWVAIIGDGDTYTYYPDSVKGRFTISRDNSKNRLYLQMNDLKSEDTAMYYCVRTRGGPFDYWGQGTTLTVSS VL: EILLTQSPAFMSATPGEKVTITCSASSSVGSMHWYQQKSGQSPRRLIYDTSKLASGVPDRFSGSGSGTDYTLTISSLEAEDAATYYCQQWSSIPPTFGAGTTLELK | 5 | 0.000447 | 89400 |  | 0.0424 | 0.635 Log10(ug/ml)

The remaining binders from weak to strong by Kd [1], led by results:

Kd [1] [nM] | koff [1] [s⁻¹] | kon [1] [M⁻¹ s⁻¹] | EC50 [2] [µg/mL] | EC50 [3] [µg/mL] | LogEC50 [4] | Binder
7.02 | 0.000396 | 56500 |  | 0.0342 | 0.546 Log10(ug/ml) | 9424 (antibody, human IgG1, V domains shown, not shown: a dimerising Fc or GST, Humanized m2F11, human IgG1 / kappa) VH: EVHLQESGGGLVKPGGSLRLSCAASGFTFSSYAMSWVRQTPEKGLEWVAIIGDGDTYTYYPDSVKGRFTISRDNAKNTLYLQMNSLKSEDTAMYYCVRTRGGPFDYWGQGTTLTVSS VL: EILLTQSPAFMSATPGEKVTITCSASSSVGSMHWYQQKSGQSPRRLIYDTSKLASGVPDRFSGSGSGTDYTLTISSLEAEDAATYYCQQWSSIPPTFGAGTTLELK
5.15 | 0.000499 | 97000 | 0.0427 |  | 0.62 Log10(ug/ml) | 14822 (antibody, human IgG1, V domains shown, not shown: a dimerising Fc or GST, Humanized m2F11, human IgG1 / kappa) VH: EVHLQESGGGLVKPGGSLRLSCAASGFTFSSYAMSWVRQMPGKGLEWVAIIGDGDTYTYYPDSVKGRFTISRDNSKNTLYLQMNSLKSEDTAMYYCVRTRGGPFDYWGQGTTLTVSS VL: EILLTQSPAFMSATPGEKVTITCSASSSVGSMHWYQQKSGQSPRRLIYDTSKLASGVPDRFSGSGSGTDYTLTISSLEAEDAATYYCQQWSSIPPTFGAGTTLELK
4.86 | 0.000348 | 71500 |  | 0.0445 |  | 16647 (antibody, human IgG1, V domains shown, not shown: a dimerising Fc or GST, Humanized m2F11, human IgG1 / kappa) VH: QVELRESGGGLVKPGGSLRLSCAASGFTFSSYAMSWVRQMPGKGLEWVAIIGDGDTYTYYPDSVKGRFTISRDNSKNRLYLQMNSLKSEDTAMYYCVRTRGGPFDYWGQGTTLTVSS VL: EILLTQSPAFMSATPGEKVTITCSASSSVGSMHWYQQKSGQSPRRLIYDTSKLASGVPDRFSGSGSGTDYTLTISSLEAEDAATYYCQQWSSIPPTFGAGTTLELK
3.39 | 0.000326 | 96200 | 0.03 |  | 0.562 Log10(ug/ml) | d12996 (antibody, human IgG1, V domains shown, not shown: a dimerising Fc or GST, Humanized m2F11, human IgG1 / kappa) VH: EVHLQESGGGLVKPGGSLRLSCAASGFTFSSYAMSWVRQEPEKNLEWVAIIGDGDTYTYYPDSVKGRFTISRDNSKNRLYLQMNDLKSEDTAMYYCVRTRGGPFDYWGQGTTLTVSS VL: EILLTQSPAFMSATPGEKVTITCSASSSVGSMHWYQQKSGQSPRRLIYDTSKLASGVPDRFSGSGSGTDYTLTISSLEAEDAATYYCQQWSSIPPTFGAGTTLELK
2.73 | 0.000287 | 105000 | 0.0583 |  |  | 9419 (antibody, human IgG1, V domains shown, not shown: a dimerising Fc or GST, Humanized m2F11, human IgG1 / kappa) VH: EVHLQESGGALVKPGGSLRLSCAASGFTFSSYAMSWVRQAPEKGLEWVAIIGDGDTYTYYPDSVKGRFTISRDNAKNTLYLQMSNLKSEDTAMYYCVRTRGGPFDYWGQGTTLTVSS VL: EILLTQSPAFMSATPGEKVTITCSASSSVGSMHWYQQKSGQSPRRLIYDTSKLASGVPDRFSGSGSGTDYTLTISSLEAEDAATYYCQQWSSIPPTFGAGTTLELK
1.7 | 0.000205 | 120000 | 0.033 |  | 0.564 Log10(ug/ml) | d9419 (antibody, human IgG1, V domains shown, not shown: a dimerising Fc or GST, Humanized m2F11, human IgG1 / kappa) VH: EVHLQESGGALVKPGGSLRLSCAASGFTFSSYAMSWVRQKPEKNLEWVAIIGDGDTYTYYPDSVKGRFTISRDNAKNTLYLQMSDLKSEDTAMYYCVRTRGGPFDYWGQGTTLTVSS VL: EILLTQSPAFMSATPGEKVTITCSASSSVGSMHWYQQKSGQSPRRLIYDTSKLASGVPDRFSGSGSGTDYTLTISSLEAEDAATYYCQQWSSIPPTFGAGTTLELK
